B1: Protein AATF (Homo sapiens), Q9NY61 (parent)
chain: MAGPQPLALQLEQLLNPRPSEADPEADPEEATAARVIDRFDEGEDGEGDFLVVGSIRKLASASLLDTDKRYCGKTTSRKAWNEDHWEQTLPGSSDEEISDEEGSGDEDSEGLGLEEYDEDDLGAAEEQECGDHRESKKSRSHSAKTPGFSVQSISDFEKFTKGMDDLGSSEEEEDEESGMEEGDDAEDSQGESEEDRAGDRNSEDDGVVMTFSSVKVSEEVEKGRAVKNQIALWDQLLEGRIKLQKALLTTNQLPQPDVFPLFKDKGGPEFSSALKNSHKALKALLRSLVGLQEELLFQYPDTRYLVDGTKPNAGSEEISSEDDELVEEKKQQRRRVPAKRKLEMEDYPSFMAKRFADFTVYRNRTLQKWHDKTKLASGKLGKGFGAFERSILTQIDHILMDKERLLRRTQTKRSVYRVLGKPEPAAQPVPESLPGEPEILPQAPANAHLKDLDEEIFDDDDFYHQLLRELIERKTSSLDPNDQVAMGRQWLAIQKLRSKIHKKVDRKASKGRKLRFHVLSKLLSFMAPIDHTTMNDDARTELYRSLFGQLHPPDEGHGD

Variants of: B1
Conditions: with tf65_human RELA

| Variant | effect of a mutation on the interaction |
| --- | --- |
| S143A;S189A;S477A;S510A | disrupting interaction |

Variants of: B1
Conditions: with atm_human ATM

| Variant | effect of a mutation on the interaction |
| --- | --- |
| S189A | disrupting interaction |

Variants of: B1
Conditions: with chk2_human CHEK2, O96017
Sequence of chk2_human CHEK2, O96017 (O96017 whole entry): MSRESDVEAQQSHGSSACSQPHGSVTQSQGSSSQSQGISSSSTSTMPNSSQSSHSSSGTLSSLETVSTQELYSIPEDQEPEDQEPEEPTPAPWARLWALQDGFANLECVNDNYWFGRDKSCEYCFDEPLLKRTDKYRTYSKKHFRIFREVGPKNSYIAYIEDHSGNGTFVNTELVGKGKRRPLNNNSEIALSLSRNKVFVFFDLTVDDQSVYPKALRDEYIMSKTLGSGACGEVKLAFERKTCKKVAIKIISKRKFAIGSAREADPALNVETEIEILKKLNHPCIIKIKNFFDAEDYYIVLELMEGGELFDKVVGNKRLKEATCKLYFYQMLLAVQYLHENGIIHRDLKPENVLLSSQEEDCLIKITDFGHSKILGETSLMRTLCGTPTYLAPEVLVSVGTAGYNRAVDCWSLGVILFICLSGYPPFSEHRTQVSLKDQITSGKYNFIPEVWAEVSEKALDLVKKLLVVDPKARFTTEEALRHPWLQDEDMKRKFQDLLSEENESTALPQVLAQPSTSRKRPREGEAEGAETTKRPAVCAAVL

| Variant | effect of a mutation on the interaction |
| --- | --- |
| S143A;S477A;S510A | disrupting interaction |
| S141A;K508A | decreasing interaction |
| S141A;R474A | decreasing interaction |

From IntAct's records for PubMed 17157788
